# Changes are numbered by the printed parent chain. Numbers in names are those of the source. Read-outs that look alike come from different tables or passages of the source.
# B1: PBP (S3C-I76G-P86C): double-cysteine variant of E. coli phosphate binding protein PBP with additional I76G mutation (protein, UniProt P0AG82 26-346, looked up, variant S3C I76G P86C)
# Phosphate-binding protein PstS: EACLTGAGATFPAPVYAKWADTYQKETGNKVNYQGIGSSGGVKQIIANTVDFGASDAPLSDEKLAQEGLFQFPTVGGGVVLAVNICGLKSGELVLDGKTLGDIYLGKIKKWDDEAIAKLNPGLKLPSQNIAVVRRADGSGTSFVFTSYLAKVNEEWKNNVGTGSTVKWPIGLGGKGNDGIAAFVQRLPGAIGYVEYAYAKQNNLAYTKLISADGKPVSPTEENFANAAKGADWSKTFAQDLTNQKGEDAWPITSTTFILIHKDQKKPEQGTEVLKFFDWAYKTGAKQANDLDYASLPDSVVEQVRAAWKTNIKDSSGKPLY
# B2: PBP (I76G): cysteine-less PBP variant with only the I76G mutation (protein, UniProt P0AG82 26-346, looked up, variant I76G)
# Phosphate-binding protein PstS: B1 Phosphate-binding protein PstS with C3S, C86P
# B3: wild-type: wild-type E. coli phosphate binding protein PBP (phoS gene) (protein, UniProt P0AG82 26-346, looked up)
# Phosphate-binding protein PstS: B1 Phosphate-binding protein PstS with C3S, G76I, C86P
# Assays:
# [1] = Isothermal titration calorimetry (ITC) of PBP variants with inorganic phosphate; format: binding, E. coli; details: 25 °C, unlabeled protein, mean ± SD from n = 2 protein preparations
# Experimental: Protein from a diluted solution was concentrated to ~ 30 µM using a Viva Spin 6 concentrator with a 10 kDa MWCO. The filtrate was used to prepare the phosphate solution at 450 µM. The reaction cell was filled with the protein solution and titrated in 19 steps of 2 µl each of phosphate solution in 160 s intervals. A baseline control was obtained from measurements made with protein-free filtrate in the reaction cell, and this baseline was subtracted from the experimental thermograms. Data were fitted to a single binding site model using the Setup MicroCal PEAQ-ITC Analysis Software provided by the manufacturer.
# [2] = design: method as in PMID 26199994; details: cited from earlier work
molecule,measurement,setting,value
B1,Kd,[1],10 ± 5 µM
B2,reduction of affinity for inorganic phosphate compared to wild-type,[2]; I76G mutation,~200 fold
same,Kd,[1],19 ± 6 µM
B3,Kd,[2]; wild-type affinity for inorganic phosphate,0.07 µM
